In patent US20250066503A1, “CELL INJURY INDUCING THERAPEUTIC DRUG FOR USE IN CANCER THERAPY” (CHUGAI SEIYAKU KABUSHIKI KAISHA, priority 2016, published 2025):
Where a chain is given by its changes, count along the chain named. Each block holds one binder with its values, some of them ahead of it.

Biological target: T1, human GPC3 (human, UniProt P51654 25-563)
T1 construct: range 25-563; soluble analyte; also called soluble human GPC3; glypican 3
Assay: SPR

T1 sequence (P51654 25-563 limits assumed): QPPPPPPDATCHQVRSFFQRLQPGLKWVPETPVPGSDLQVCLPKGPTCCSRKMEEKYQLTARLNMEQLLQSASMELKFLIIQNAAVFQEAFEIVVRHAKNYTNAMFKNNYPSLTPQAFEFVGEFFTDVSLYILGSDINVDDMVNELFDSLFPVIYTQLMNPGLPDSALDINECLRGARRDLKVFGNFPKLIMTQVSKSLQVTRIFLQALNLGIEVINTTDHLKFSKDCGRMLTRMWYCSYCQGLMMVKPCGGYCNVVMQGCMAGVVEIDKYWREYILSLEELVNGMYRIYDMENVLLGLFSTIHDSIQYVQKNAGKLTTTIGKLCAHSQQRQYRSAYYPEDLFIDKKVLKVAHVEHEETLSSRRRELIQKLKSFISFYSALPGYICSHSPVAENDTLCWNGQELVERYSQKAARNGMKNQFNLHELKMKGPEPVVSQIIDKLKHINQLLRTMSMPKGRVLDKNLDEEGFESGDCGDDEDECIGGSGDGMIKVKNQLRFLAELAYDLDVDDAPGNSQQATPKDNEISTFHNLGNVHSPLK

B1: GCH034-G1dh/none-Hi-Kn010G3/L0000-k0 (antibody, V domains shown)
VH: QVQLVQSGAEVKKPGASVKVSCKASGYTFTDYEMHWIRQPPGQGLEWIGAIDGKTPDTAYSQKFEGRVTLTADKSTSTAYMELSSLTSEDTAVYYCTRFYSYTYWGQGTLVTVSS
VL: DIVMTQSPLSLPVTPGEPASISCRSSQSLVHSNRNTYLHWYQQKPGQAPRLLIYKVSNRFSGVPDRFSGSGSGTDFTLKISRVEAEDVGVYYCGQGTQVPYTFGQGTKLEIKR
notes: one-arm
Kd: 5.09 nM

B2: GCH054-G1dh/none-Hi-Kn010G3/L0203-k0 (antibody, V domains shown)
VH: B1 VH with K19T, Q43E, K54E, Q62E, E65K
VL: B1 VL with L29P, L38I
notes: one-arm
Kd: 2.48 nM

B6: GCH094-G1dh/none-Hi-Kn010G3/L0000-k0 (antibody, V domains shown)
VH: B1 VH with K19T, I37V, P40A, Q43E, I48M, K54E, Q62E, E65K
VL: B1 VL
notes: one-arm
Kd: 5.89 nM

B9: H0610-G1dh/none-Hi-Kn010G3/L0201-k0 (antibody, V domains shown)
VH: B1 VH with E65K
VL: B1 VL with S28P, L29P
notes: one-arm
Kd: 1.13 nM

B10: GCH054-G1dh/none-Hi-Kn010G3/L0201-k0 (antibody, V domains shown)
VH: B1 VH with K19T, Q43E, K54E, Q62E, E65K
VL: B1 VL with S28P, L29P
notes: one-arm
Kd: 1.08 nM

B11: GCH045-G1dh/none-Hi-Kn010G3/L0000-k0 (antibody, V domains shown)
VH: B1 VH with E65K, V93E
VL: B1 VL
notes: one-arm
Kd: 4.63 nM

B14: GCH039-G1dh/none-Hi-Kn010G3/L0000-k0 (antibody, V domains shown)
VH: B1 VH with E65K, S84E
VL: B1 VL
notes: one-arm
Kd: 4.95 nM

B19: GCH055-G1dh/none-Hi-Kn010G3/L0000-k0 (antibody, V domains shown)
VH: B1 VH with K19T, Q43E, K54E, Q62D, E65K
VL: B1 VL
notes: one-arm
Kd: 5.6 nM

B21: GCH060-G1dh/none-Hi-Kn010G3/L0222-k0 (antibody, V domains shown)
VH: B1 VH with K19T, T30E, Q43E, K54E, S88E
VL: B1 VL with L29P, L38I, H39Q, G94Y
notes: one-arm
Kd: 0.000642 nM

B25: GCH042-G1dh/none-Hi-Kn010G3/L0000-k0 (antibody, V domains shown)
VH: B1 VH with E65K, S88E
VL: B1 VL
notes: one-arm
Kd: 4.89 nM

B27: GCH057-G1dh/none-Hi-Kn010G3/L0000-k0 (antibody, V domains shown)
VH: B1 VH with K19T, Q43E, K54E, Q62E
VL: B1 VL
notes: one-arm
Kd: 5.61 nM

B30: GCH054-G1dh/none-Hi-Kn010G3/L0000-k0 (antibody, V domains shown)
VH: B1 VH with K19T, Q43E, K54E, Q62E, E65K
VL: B1 VL
notes: one-arm
Kd: 5.3 nM

B31: GCH056-G1dh/none-Hi-Kn010G3/L0000-k0 (antibody, V domains shown)
VH: B1 VH with K19T, Q43E, K54E
VL: B1 VL
notes: one-arm
Kd: 5.03 nM

B34: H0610-G1dh/none-Hi-Kn010G3/L0011-k0 (antibody, V domains shown)
VH: B1 VH with E65K
VL: B1 VL with S28P
notes: one-arm
Kd: 2.76 nM

B37: GCH099-G1dh/none-Hi-Kn010G3/L0000-k0 (antibody, V domains shown)
VH: B1 VH with K19T, I37V, P40A, Q43E, I48M, K54W, Q62E, E65K
VL: B1 VL
notes: one-arm
Kd: 4.24 nM

B38: GCH053-G1dh/none-Hi-Kn010G3/L0000-k0 (antibody, V domains shown)
VH: B1 VH with K19T, Q43E, K54E, S61E, E65K
VL: B1 VL
notes: one-arm
Kd: 4.05 nM

B45: GCH064-G1dh/none-Hi-Kn010G3/L0000-k0 (antibody, V domains shown)
VH: B1 VH with E65K, T87R
VL: B1 VL
notes: one-arm
Kd: 4.14 nM

B47: GCH067-G1dh/none-Hi-Kn010G3/L0000-k0 (antibody, V domains shown)
VH: B1 VH with K19T, Q43E, K54Y, Q62E, E65K
VL: B1 VL
notes: one-arm
Kd: 5.24 nM

B48: GCH068-G1dh/none-Hi-Kn010G3/L0000-k0 (antibody, V domains shown)
VH: B1 VH with K19T, Q43E, Q62E, E65K
VL: B1 VL
notes: one-arm
Kd: 6.23 nM

B49: GCH065-G1dh/none-Hi-Kn010G3/L0000-k0 (antibody, V domains shown)
VH: B1 VH with K19T, Q43E, K54P, Q62E, E65K
VL: B1 VL
notes: one-arm
Kd: 1.41 nM

The remaining binders from weak to strong by Kd, led by results:

Kd: 5.7 nM
B32: GCH059-G1dh/none-Hi-Kn010G3/L0000-k0 (antibody, V domains shown)
VH: B1 VH with K19T, Q43E, K54E, S88E
VL: B1 VL
notes: one-arm

Kd: 5.39 nM
B44: GCH100-G1dh/none-Hi-Kn010G3/L0000-k0 (antibody, V domains shown)
VH: B1 VH with K19T, I37V, P40A, Q43E, I48M, K54Y, Q62E, E65K
VL: B1 VL
notes: one-arm

Kd: 5.13 nM
B28: GCH061-G1dh/none-Hi-Kn010G3/L0000-k0 (antibody, V domains shown)
VH: B1 VH with I37V, P40A, E65K
VL: B1 VL
notes: one-arm

Kd: 4.94 nM
B20: GCH035-G1dh/none-Hi-Kn010G3/L0000-k0 (antibody, V domains shown)
VH: B1 VH with E65K, T69E
VL: B1 VL
notes: one-arm

Kd: 4.8 nM
B40: GCH040-G1dh/none-Hi-Kn010G3/L0000-k0 (antibody, V domains shown)
VH: B1 VH with E65K, S85E
VL: B1 VL
notes: one-arm

Kd: 4.31 nM
B17: GCH056-G1dh/none-Hi-Kn010G3/L0011-k0 (antibody, V domains shown)
VH: B1 VH with K19T, Q43E, K54E
VL: B1 VL with S28P
notes: one-arm

Kd: 4.29 nM
B42: GCH066-G1dh/none-Hi-Kn010G3/L0000-k0 (antibody, V domains shown)
VH: B1 VH with K19T, Q43E, K54W, Q62E, E65K
VL: B1 VL
notes: one-arm

Kd: 3.81 nM
B5: GCH100-G1dh/none-Hi-Kn010G3/L0011-k0 (antibody, V domains shown)
VH: B1 VH with K19T, I37V, P40A, Q43E, I48M, K54Y, Q62E, E65K
VL: B1 VL with S28P
notes: one-arm

Kd: 3.74 nM
B26: GCH043-G1dh/none-Hi-Kn010G3/L0000-k0 (antibody, V domains shown)
VH: B1 VH with E65K, T91E
VL: B1 VL
notes: one-arm

Kd: 3.73 nM
B22: GCH062-G1dh/none-Hi-Kn010G3/L0000-k0 (antibody, V domains shown)
VH: B1 VH with I48M, E65K
VL: B1 VL
notes: one-arm

Kd: 2.78 nM
B23: GCH099-G1dh/none-Hi-Kn010G3/L0011-k0 (antibody, V domains shown)
VH: B1 VH with K19T, I37V, P40A, Q43E, I48M, K54W, Q62E, E65K
VL: B1 VL with S28P
notes: one-arm

Kd: 2.11 nM
B12: H0610-G1dh/none-Hi-Kn010G3/L0203-k0 (antibody, V domains shown)
VH: B1 VH with E65K
VL: B1 VL with L29P, L38I
notes: one-arm

Kd: 2 nM
B4: GCH073-G1dh/none-Hi-Kn010G3/L0000-k0 (antibody, V domains shown)
VH: B1 VH with K19T, Q43E, K54P
VL: B1 VL
notes: one-arm

Kd: 1.77 nM
B41: GCH098-G1dh/none-Hi-Kn010G3/L0000-k0 (antibody, V domains shown)
VH: B1 VH with K19T, I37V, P40A, Q43E, I48M, K54P, Q62E, E65K
VL: B1 VL
notes: one-arm

Kd: 1.37 nM
B35: GCH100-G1dh/none-Hi-Kn010G3/L0201-k0 (antibody, V domains shown)
VH: B1 VH with K19T, I37V, P40A, Q43E, I48M, K54Y, Q62E, E65K
VL: B1 VL with S28P, L29P
notes: one-arm

Kd: 1.29 nM
B15: GCH099-G1dh/none-Hi-Kn010G3/L0201-k0 (antibody, V domains shown)
VH: B1 VH with K19T, I37V, P40A, Q43E, I48M, K54W, Q62E, E65K
VL: B1 VL with S28P, L29P
notes: one-arm

Kd: 1.17 nM
B8: GCH094-G1dh/none-Hi-Kn010G3/L0201-k0 (antibody, V domains shown)
VH: B1 VH with K19T, I37V, P40A, Q43E, I48M, K54E, Q62E, E65K
VL: B1 VL with S28P, L29P
notes: one-arm

Kd: 1.16 nM
B46: GCH056-G1dh/none-Hi-Kn010G3/L0201-k0 (antibody, V domains shown)
VH: B1 VH with K19T, Q43E, K54E
VL: B1 VL with S28P, L29P
notes: one-arm

Kd: 0.91 nM
B29: GCH073-G1dh/none-Hi-Kn010G3/L0011-k0 (antibody, V domains shown)
VH: B1 VH with K19T, Q43E, K54P
VL: B1 VL with S28P
notes: one-arm

Kd: 0.802 nM
B7: GCH098-G1dh/none-Hi-Kn010G3/L0011-k0 (antibody, V domains shown)
VH: B1 VH with K19T, I37V, P40A, Q43E, I48M, K54P, Q62E, E65K
VL: B1 VL with S28P
notes: one-arm

Kd: 0.727 nM
B16: H0610-G1dh/none-Hi-Kn010G3/L0204-k0 (antibody, V domains shown)
VH: B1 VH with E65K
VL: B1 VL with L29P, S61R
notes: one-arm

Kd: 0.614 nM
B24: GCH055-G1dh/none-Hi-Kn010G3/L0212-k0 (antibody, V domains shown)
VH: B1 VH with K19T, Q43E, K54E, Q62D, E65K
VL: B1 VL with S25P, L29P, G94Y
notes: one-arm

Kd: 0.517 nM
B13: GCH054-G1dh/none-Hi-Kn010G3/L0212-k0 (antibody, V domains shown)
VH: B1 VH with K19T, Q43E, K54E, Q62E, E65K
VL: B1 VL with S25P, L29P, G94Y
notes: one-arm

Kd: 0.111 nM
B33: GCH098-G1dh/none-Hi-Kn010G3/L0201-k0 (antibody, V domains shown)
VH: B1 VH with K19T, I37V, P40A, Q43E, I48M, K54P, Q62E, E65K
VL: B1 VL with S28P, L29P
notes: one-arm

Kd: 0.0774 nM
B36: GCH065-G1dh/none-Hi-Kn010G3/L0201-k0 (antibody, V domains shown)
VH: B1 VH with K19T, Q43E, K54P, Q62E, E65K
VL: B1 VL with S28P, L29P
notes: one-arm

Kd: 0.035 nM
B3: GCH073-G1dh/none-Hi-Kn010G3/L0201-k0 (antibody, V domains shown)
VH: B1 VH with K19T, Q43E, K54P
VL: B1 VL with S28P, L29P
notes: one-arm

Kd: 0.0315 nM
B18: GCH054-G1dh/none-Hi-Kn010G3/L0222-k0 (antibody, V domains shown)
VH: B1 VH with K19T, Q43E, K54E, Q62E, E65K
VL: B1 VL with L29P, L38I, H39Q, G94Y
notes: one-arm

Kd: 0.0039 nM
B39: GCH055-G1dh/none-Hi-Kn010G3/L0222-k0 (antibody, V domains shown)
VH: B1 VH with K19T, Q43E, K54E, Q62D, E65K
VL: B1 VL with L29P, L38I, H39Q, G94Y
notes: one-arm

Kd: 0.00185 nM
B43: GCH057-G1dh/none-Hi-Kn010G3/L0222-k0 (antibody, V domains shown)
VH: B1 VH with K19T, Q43E, K54E, Q62E
VL: B1 VL with L29P, L38I, H39Q, G94Y
notes: one-arm
